Test results as given in paper PMC3094755.
pKd: −log10 of the molar value. Several values for one entry are separate records, joined by “and”; a condition that tells them apart may be missing. Identical values can stand only once.

Molecular target: PARP-1 F1 (Homo sapiens) (UniProt P09874)
Experiment: fluorescence anisotropy
Conditions: 5'-phosphate; FA: 50 mM Tris-HCl pH 7, 150 uM ZnSO4, 4 mM DTT, 0-200 mM NaCl, 25 C, 10 nM DNA (mutants 25 nM DNA, 25 mM NaCl); EMSA: 50 mM Tris-HCl pH 7.4, 150 uM ZnSO4, 4 mM

Sequence of PARP-1 F1 (Homo sapiens) (P09874 1-108): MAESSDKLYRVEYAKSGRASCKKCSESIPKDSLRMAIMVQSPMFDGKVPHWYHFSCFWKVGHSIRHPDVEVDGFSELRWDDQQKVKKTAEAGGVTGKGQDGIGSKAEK

**Q.** How did the pKd turn out when “CGGTCGATCGTAAGATCGACCGGCGCTGGAGCTTGCTCCAGCGC [44-nt nicked dumbbell, 5'-phosphate, fluorescein-dT]” was run?
**A.** 5.18 and 5.96
